# Square brackets hold non-standard residues; d marks the D form. Nle = CCCC[C@H](N)C(=O)O
# B1: peptide of SEQ ID NO: 24 (peptide)
# peptide: Ac-ARVYDLGLRRLRQRRRLRRERVRAKRYDREFLLAFQF[Nle]-NH2
# SMILES: CCCC[C@H](NC(=O)[C@H](Cc1ccccc1)NC(=O)[C@H](CCC(N)=O)NC(=O)[C@H](Cc1ccccc1)NC(=O)[C@H](C)NC(=O)[C@H](CC(C)C)NC(=O)[C@H](CC(C)C)NC(=O)[C@H](Cc1ccccc1)NC(=O)[C@H](CCC(=O)O)NC(=O)[C@H](CCCNC(=N)N)NC(=O)[C@H](CC(=O)O)NC(=O)[C@H](Cc1ccc(O)cc1)NC(=O)[C@H](CCCNC(=N)N)NC(=O)[C@H](CCCCN)NC(=O)[C@H](C)NC(=O)[C@H](CCCNC(=N)N)NC(=O)[C@@H](NC(=O)[C@H](CCCNC(=N)N)NC(=O)[C@H](CCC(=O)O)NC(=O)[C@H](CCCNC(=N)N)NC(=O)[C@H](CCCNC(=N)N)NC(=O)[C@H](CC(C)C)NC(=O)[C@H](CCCNC(=N)N)NC(=O)[C@H](CCCNC(=N)N)NC(=O)[C@H](CCCNC(=N)N)NC(=O)[C@H](CCC(N)=O)NC(=O)[C@H](CCCNC(=N)N)NC(=O)[C@H](CC(C)C)NC(=O)[C@H](CCCNC(=N)N)NC(=O)[C@H](CCCNC(=N)N)NC(=O)[C@H](CC(C)C)NC(=O)CNC(=O)[C@H](CC(C)C)NC(=O)[C@H](CC(=O)O)NC(=O)[C@H](Cc1ccc(O)cc1)NC(=O)[C@@H](NC(=O)[C@H](CCCNC(=N)N)NC(=O)[C@H](C)NC(C)=O)C(C)C)C(C)C)C(N)=O
# B2: peptide of SEQ ID NO: 26 (peptide)
# peptide: Ac-GAAEAAARVYDLGLRRLRQRRYLRRELLRF-NH2
# B3: peptide of SEQ ID NO: 23 (peptide)
# peptide: Ac-KRYDREFLLAFQF[Nle]VYDLGLRRLRQRRRLRRERVRA-NH2
# SMILES: CCCC[C@H](NC(=O)[C@H](Cc1ccccc1)NC(=O)[C@H](CCC(N)=O)NC(=O)[C@H](Cc1ccccc1)NC(=O)[C@H](C)NC(=O)[C@H](CC(C)C)NC(=O)[C@H](CC(C)C)NC(=O)[C@H](Cc1ccccc1)NC(=O)[C@H](CCC(=O)O)NC(=O)[C@H](CCCNC(=N)N)NC(=O)[C@H](CC(=O)O)NC(=O)[C@H](Cc1ccc(O)cc1)NC(=O)[C@H](CCCNC(=N)N)NC(=O)[C@H](CCCCN)NC(C)=O)C(=O)N[C@H](C(=O)N[C@@H](Cc1ccc(O)cc1)C(=O)N[C@@H](CC(=O)O)C(=O)N[C@@H](CC(C)C)C(=O)NCC(=O)N[C@@H](CC(C)C)C(=O)N[C@@H](CCCNC(=N)N)C(=O)N[C@@H](CCCNC(=N)N)C(=O)N[C@@H](CC(C)C)C(=O)N[C@@H](CCCNC(=N)N)C(=O)N[C@@H](CCC(N)=O)C(=O)N[C@@H](CCCNC(=N)N)C(=O)N[C@@H](CCCNC(=N)N)C(=O)N[C@@H](CCCNC(=N)N)C(=O)N[C@@H](CC(C)C)C(=O)N[C@@H](CCCNC(=N)N)C(=O)N[C@@H](CCCNC(=N)N)C(=O)N[C@@H](CCC(=O)O)C(=O)N[C@@H](CCCNC(=N)N)C(=O)N[C@H](C(=O)N[C@@H](CCCNC(=N)N)C(=O)N[C@@H](C)C(N)=O)C(C)C)C(C)C
# B4: peptide of SEQ ID NO: 25 (peptide)
# peptide: Ac-GAAEAAAYVYDLLLRFLRQRRRLRRERVRA-NH2
# Biological target: T1, Human eIF4E (aa 28-217) with a C-terminal His tag (human, UniProt P06730 28-217)
# T1 construct: also called HH-eIF4E; eukaryotic initiation factor 4E
# T1 sequence (P06730 other isoform, or with tags, fused parts or gaps limits assumed): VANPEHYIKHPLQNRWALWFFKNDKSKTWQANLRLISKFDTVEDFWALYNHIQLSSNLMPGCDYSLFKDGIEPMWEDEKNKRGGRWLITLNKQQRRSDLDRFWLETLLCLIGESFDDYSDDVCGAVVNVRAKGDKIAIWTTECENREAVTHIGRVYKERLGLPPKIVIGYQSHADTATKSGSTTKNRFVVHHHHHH
# Experiment: TR-FRET competition vs biotin-4G2 peptide on HH-eIF4E
# Description: Test peptides (1.6 mM stock in DMSO) were diluted 3 fold in series in DMSO and solutions were diluted 4 fold in Assay Buffer (50 mM NaPi, pH 6.5, 50 mM KCl, 1 mM DTT, 0.004% NP40 and 0.5 mg/ml gammaglobulin). […] The samples were incubated at room temperature for 20 minutes.
# IC50 values were calculated using Condoseo software (Genedata AG, Basel, Switzerland).
row,Binder,IC50
1,B1,19 nM
2,B2,250 nM
3,B3,180 nM
4,B4,11000 nM

# Reference: patent US20150166621A1 (Hoffmann-La Roche, published 2015)
